# In patent US20160168247A1 (published 2016):
# Changes are numbered by the printed parent chain.
# T1: HSC-F (cynomolgus monkey, UniProt Q95LI8 22-171; Q95LI7 23-181)
# T1 chain: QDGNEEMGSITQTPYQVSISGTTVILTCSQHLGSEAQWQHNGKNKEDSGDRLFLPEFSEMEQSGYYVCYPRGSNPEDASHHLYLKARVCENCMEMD
# B1: bsIgG1 CD3×HER2 (bispecific antibody, V domains shown)
# VH 1: EVKLLESGGGLVQPKGSLKLSCAASGFTFNTYAMNWVRQAPGKGLEWVARIRSKYNNYATYYADSVKDRFTISRDDSQSILYLQMNNLKTEDTAMYYCVRHGNFGNSYVSWFAYWGQGTLVTVSA
# VL 1: QAVVTQESALTTSPGETVTLTCRSSTGAVTTSNYANWVQEKPDHLFTGLIGGTNKRAPGVPARFSGSLIGDKAALTITGAQTEDEAIYFCALWYSNLWVFGGGTKLTVL
# VH 2: QVQLVQSGAEVKKPGASVKVSCKASGYTFTNYGISWVRQAPGQGLEWMGWLSAYSGNTIYAQKLQGRVTMTTDTSTTTAYMELRSLRSDDTAVYYCARDRIVVRPDYFDYWGQGTLVTVSS
# VL 2: EIVLTQSPATLSLSPGERATLSCRASQSVSSYLAWYQQKPGQAPRLLIYDASNRATGIPARFSGSGSGTDFTLTISSLEPEDFAVYYCQQRSNWPRTFGQGTKVEIK
# B2: IgG1-huCD3-H1L1 (antibody, V domains shown)
# VH: B1 VH 1 with L5V, K15G, K19R, Q78K, I80S, A125S
# VL: not shown
# B3: bsIgG1-huCD3-H1L3xHER2-LFLEDA (bispecific antibody, V domains shown)
# VH 1: B1 VH 1 with L5V, K15G, K19R, Q78K, I80S, A125S
# VL 1: QAVVTQEPSFSVSPGGTVTLTCRSSTGAVTTSNYANWVQQTPGQAFRGLIGGTNKRAPGVPARFSGSILGNKAALTITGAQADDESDYYCALWYSNLWVFGGGTKLTVL
# VH 2: B1 VH 2
# VL 2: B1 VL 2
# B4: bsIgG1 CD3xHER2-LFLEDA (bispecific antibody, V domains shown)
# VH 1: B1 VH 1
# VL 1: B1 VL 1
# VH 2: B1 VH 2
# VL 2: B1 VL 2
# B5: bsIgG1-huCD3-H1L3×HER2-LFLEDA (bispecific antibody, V domains shown)
# VH 1: B1 VH 1 with L5V, K15G, K19R, Q78K, I80S, A125S
# VL 1: B3 VL 1
# VH 2: B1 VH 2
# VL 2: B1 VL 2
# B6: IgG1-huCD3-H3L1-LFLEDA (antibody, V domains shown)
# VH: B1 VH 1 with L5V, Q13K, K15G, G16R, K19R, Q78K, N87S, A125S
# VL: not shown
# B7: IgG1-CD3-LFLEDA (antibody, V domains shown)
# VH: B1 VH 1
# VL: B1 VL 1
# B8: IgG1-CD3-LFLEDA (parental chimeric CD3 antibody with non-activating LFLEDA mutations) (antibody, V domains shown)
# VH: B1 VH 1
# VL: B1 VL 1
# B9: bsIgG1 huCD3-H3L1xHER2-LFLEDA (bispecific antibody, V domains shown)
# VH 1: B1 VH 1 with L5V, Q13K, K15G, G16R, K19R, Q78K, N87S, A125S
# VL 1: not shown
# VH 2: B1 VH 2
# VL 2: B1 VL 2
# B10: IgG1-huCD3-H3L3-LFLEDA (antibody, V domains shown)
# VH: B1 VH 1 with L5V, Q13K, K15G, G16R, K19R, Q78K, N87S, A125S
# VL: B3 VL 1
# B11: IgG1-huCD3-H1L3-LFLEDA (antibody, V domains shown)
# VH: B1 VH 1 with L5V, K15G, K19R, Q78K, I80S, A125S
# VL: B3 VL 1
# B12: bsIgG1 huCD3-H3L1×HER2-LFLEDA (bispecific antibody, V domains shown)
# VH 1: B1 VH 1 with L5V, Q13K, K15G, G16R, K19R, Q78K, N87S, A125S
# VL 1: not shown
# VH 2: B1 VH 2
# VL 2: B1 VL 2
# B13: IgG1-huCD3-H3L3 (antibody, V domains shown)
# VH: B1 VH 1 with L5V, Q13K, K15G, G16R, K19R, Q78K, N87S, A125S
# VL: B3 VL 1
# B14: bsIgG1-huCD3-H4L1×HER2-LFLEDA (bispecific antibody, V domains shown)
# VH 1: B1 VH 1 with L5V, Q13K, K15G, G16R, K19R, Q78K, N87S, L120M, A125S
# VL 1: not shown
# VH 2: B1 VH 2
# VL 2: B1 VL 2
# B15: bsIgG1-huCD3-H3L3xHER2-LFLEDA (bispecific antibody, V domains shown)
# VH 1: B1 VH 1 with L5V, Q13K, K15G, G16R, K19R, Q78K, N87S, A125S
# VL 1: B3 VL 1
# VH 2: B1 VH 2
# VL 2: B1 VL 2
# B16: bsIgG1-huCD3-H3L3×HER2-LFLEDA (bispecific antibody, V domains shown)
# VH 1: B1 VH 1 with L5V, Q13K, K15G, G16R, K19R, Q78K, N87S, A125S
# VL 1: B3 VL 1
# VH 2: B1 VH 2
# VL 2: B1 VL 2
# B17: IgG1-huCD3-H4L3-LFLEDA (antibody, V domains shown)
# VH: B1 VH 1 with L5V, Q13K, K15G, G16R, K19R, Q78K, N87S, L120M, A125S
# VL: B3 VL 1
# B18: IgG1-huCD3-H1L2 (antibody, V domains shown)
# VH: B1 VH 1 with L5V, K15G, K19R, Q78K, I80S, A125S
# VL: B3 VL 1 with D87I, Y89F
# B19: IgG1-huCD3-H4L1 (antibody, V domains shown)
# VH: B1 VH 1 with L5V, Q13K, K15G, G16R, K19R, Q78K, N87S, L120M, A125S
# VL: not shown
# B20: bsIgG1-huCD3-H3L1xHER2-LFLEDA (bispecific antibody, V domains shown)
# VH 1: B1 VH 1 with L5V, Q13K, K15G, G16R, K19R, Q78K, N87S, A125S
# VL 1: not shown
# VH 2: B1 VH 2
# VL 2: B1 VL 2
# B21: bsIgG1-huCD3-H1L1xHER2-LFLEDA (bispecific antibody, V domains shown)
# VH 1: B1 VH 1 with L5V, K15G, K19R, Q78K, I80S, A125S
# VL 1: not shown
# VH 2: B1 VH 2
# VL 2: B1 VL 2
# B22: bsIgG1-huCD3-H4L1xHER2-LFLEDA (bispecific antibody, V domains shown)
# VH 1: B1 VH 1 with L5V, Q13K, K15G, G16R, K19R, Q78K, N87S, L120M, A125S
# VL 1: not shown
# VH 2: B1 VH 2
# VL 2: B1 VL 2
# B23: IgG1-huCD3-H1L3 (antibody, V domains shown)
# VH: B1 VH 1 with L5V, K15G, K19R, Q78K, I80S, A125S
# VL: B3 VL 1
# B24: bsIgG1-huCD3-H4L3×HER2-LFLEDA (bispecific antibody, V domains shown)
# VH 1: B1 VH 1 with L5V, Q13K, K15G, G16R, K19R, Q78K, N87S, L120M, A125S
# VL 1: B3 VL 1
# VH 2: B1 VH 2
# VL 2: B1 VL 2
# B25: IgG1-huCD3-H1L1-LFLEDA (antibody, V domains shown)
# VH: B1 VH 1 with L5V, K15G, K19R, Q78K, I80S, A125S
# VL: not shown
# B26: IgG1-huCD3-H4L1-LFLEDA (antibody, V domains shown)
# VH: B1 VH 1 with L5V, Q13K, K15G, G16R, K19R, Q78K, N87S, L120M, A125S
# VL: not shown
# Legend:
# [1] = molecular target: T2, human CD3 (on the human T-cell line Jurkat or on human T-cells) (human, UniProt P09693 23-182; P20963 22-164); experiment: FACS binding; Fig 1B
# T2 sequence (chain, as listed by the source, chain 1 of 4): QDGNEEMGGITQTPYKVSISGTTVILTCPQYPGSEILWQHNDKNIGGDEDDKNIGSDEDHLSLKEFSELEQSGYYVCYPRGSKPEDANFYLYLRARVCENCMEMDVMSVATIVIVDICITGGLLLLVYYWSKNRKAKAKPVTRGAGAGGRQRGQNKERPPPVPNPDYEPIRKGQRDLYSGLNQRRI
# T2 sequence (chain, as listed by the source, chain 2 of 4): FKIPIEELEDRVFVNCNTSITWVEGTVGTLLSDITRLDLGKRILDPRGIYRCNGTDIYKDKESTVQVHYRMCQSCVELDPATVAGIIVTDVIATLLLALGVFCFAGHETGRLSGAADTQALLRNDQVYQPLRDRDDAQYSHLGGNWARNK
# T2 sequence (P09693 23-182, chain 3 of 4): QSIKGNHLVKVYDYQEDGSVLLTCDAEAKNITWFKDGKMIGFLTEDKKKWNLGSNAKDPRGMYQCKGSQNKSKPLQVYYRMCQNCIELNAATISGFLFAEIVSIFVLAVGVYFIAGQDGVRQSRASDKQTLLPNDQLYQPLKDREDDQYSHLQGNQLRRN
# T2 sequence (P20963 22-164, chain 4 of 4): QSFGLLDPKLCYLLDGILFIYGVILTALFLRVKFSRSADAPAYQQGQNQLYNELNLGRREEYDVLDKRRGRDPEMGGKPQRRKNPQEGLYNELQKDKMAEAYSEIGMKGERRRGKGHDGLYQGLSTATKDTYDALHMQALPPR
# HSC-F [2] = molecular target: T1, HSC-F; experiment: FACS binding; Fig 2A
# HSC-F [3] = molecular target: T1, HSC-F; experiment: FACS binding
# HSC-F [4] = molecular target: T1, HSC-F; experiment: FACS binding; Fig 2B
# [5] = molecular target: T2, human CD3 (on the human T-cell line …); experiment: FACS binding
# [6] = molecular target: T2, human CD3 (on the human T-cell line …); experiment: FACS binding; remark: listed apart in the source
# HSC-F [7] = molecular target: T1, HSC-F; experiment: FACS binding
# [8] = molecular target: T2, human CD3 (on the human T-cell line …); experiment: FACS binding; Fig 1A
binder,measurement,setting,value
B1,EC50,[1],0.68 µg/mL
B2,EC50,HSC-F [2],0.37 µg/mL
B3,EC50,HSC-F [3],0.25 µg/mL
B4,EC50,HSC-F [4],4.46 µg/mL
B5,EC50,[5],0.58 µg/mL
B6,EC50,[6],0.1 µg/mL
same,EC50,HSC-F [7],0.04 µg/mL
same,EC50,HSC-F [2],0.19 µg/mL
same,EC50,HSC-F [4],0.3 µg/mL
same,EC50,[8],0.04 µg/mL
same,EC50,[1],0.04 µg/mL
B7,EC50,HSC-F [3],0.06 µg/mL
same,EC50,HSC-F [7],0.06 µg/mL
same,EC50,HSC-F [2],0.3 µg/mL
same,EC50,HSC-F [4],0.47 µg/mL
B8,EC50,[6],0.27 µg/mL
same,EC50,[5],0.18 µg/mL
same,EC50,[8],0.08 µg/mL
same,EC50,[1],0.07 µg/mL
B9,EC50,HSC-F [4],3.54 µg/mL
B10,EC50,[6],0.08 µg/mL
same,EC50,HSC-F [7],0.03 µg/mL
B11,EC50,[6],0.11 µg/mL
same,EC50,HSC-F [7],0.03 µg/mL
B12,EC50,[5],0.64 µg/mL
same,EC50,[1],0.28 µg/mL
B13,EC50,HSC-F [2],0.11 µg/mL
same,EC50,[8],0.02 µg/mL
B14,EC50,[5],0.62 µg/mL
B15,EC50,HSC-F [3],0.26 µg/mL
B16,EC50,[5],0.74 µg/mL
B17,EC50,[6],0.08 µg/mL
same,EC50,HSC-F [7],0.02 µg/mL
B18,EC50,HSC-F [2],0.31 µg/mL
same,EC50,[8],0.08 µg/mL
B19,EC50,HSC-F [2],0.26 µg/mL
same,EC50,[8],0.05 µg/mL
B20,EC50,HSC-F [3],0.28 µg/mL
B21,EC50,HSC-F [3],0.32 µg/mL
B22,EC50,HSC-F [3],0.36 µg/mL
B23,EC50,HSC-F [2],0.28 µg/mL
same,EC50,[8],0.06 µg/mL
B24,EC50,[5],0.59 µg/mL
B25,EC50,HSC-F [7],0.03 µg/mL
B26,EC50,[6],0.06 µg/mL
same,EC50,HSC-F [7],0.03 µg/mL
